Measurements reported in article doi:10.1101/390104 (bioRxiv, 2018).
Where a chain is given by its changes, count along the chain named. Numbers in names are those of the source. Blank lines part the entries; values can stand above or below the binder they belong to.

Legend:
[1] = target: T1, MalE (E. coli, UniProt P0AEX9 27-396 = MBP); assay: ITC
[2] = target: the molecule itself; assay: NMR
[3] = target: T1, MalE; assay: NMR
[4] = target: T1, MalE; assay: 19F NMR

B1: wild type HdeA (natural protein, E. coli, UniProt P0AES9 22-110, looked up)
chain: ADAQKAADNKKPVNSWTCEDFLAVDESFQPTAVGFAEALNNKDKPEDAVLDVQGIATVTPAIVQACTQDKQANFKDKVKGEWDKIKKDM
stoichiometry N [1]: ~0.5
binding result [2]: binds

B2: HdeA-16-fluoro (natural protein)
chain: B1 chain with W82F
modifications: 5-fluorotryptophan at 16
binding result [3]: binds

B3: HdeA mutant with 19F probe incorporated at site 28 (natural protein)
chain: B1 chain with W16F, F28W, W82F
modifications: 5-fluorotryptophan at 28
binding result [4]: binds

B4: HdeA mutant with 19F probe incorporated at site 63 (natural protein)
chain: B1 chain with W16F, V63W, W82F
modifications: 5-fluorotryptophan at 63
binding result [4]: binds

B5: HdeA mutant with 19F probe incorporated at site 35 (natural protein)
chain: B1 chain with W16F, F35W, W82F
modifications: 5-fluorotryptophan at 35
binding result [4]: binds

B6: HdeA mutant with 19F probe incorporated at site 55 (natural protein)
chain: B1 chain with W16F, I55W, W82F
modifications: 5-fluorotryptophan at 55
binding result [4]: binds

Results, then the binder that gave them:

binding result [4]: binds
B7: HdeA mutant with 19F probe incorporated at site 78 (natural protein)
chain: B1 chain with W16F, V78W, W82F
modifications: 5-fluorotryptophan at 78

binding result [4]: binds
B8: HdeA mutant with 19F probe incorporated at site 49 (natural protein)
chain: B1 chain with W16F, V49W, W82F
modifications: 5-fluorotryptophan at 49

binding result [3]: binds
B9: HdeA-F28W mutant (natural protein)
chain: B1 chain with F28W

binding result [3]: binds
B10: HdeA-82-fluoro (natural protein)
chain: B1 chain with W16F
modifications: 5-fluorotryptophan at 82

binding result [4]: binds
B11: HdeA mutant with 19F probe incorporated at site 7 (natural protein)
chain: B1 chain with A7W, W16F, W82F
modifications: 5-fluorotryptophan at 7

binding result [4]: binds
B12: HdeA mutant with 19F probe incorporated at site 24 (natural protein)
chain: B1 chain with W16F, V24W, W82F
modifications: 5-fluorotryptophan at 24
